Source: IntAct's records for PubMed 38288086

B1: OTU domain-containing protein 3 (Homo sapiens), Q5T2D3 (parent)
chain: MSRKQAAKSRPGSGSRKAEAERKRDERAARRALAKERRNRPESGGGGGCEEEFVSFANQLQALGLKLREVPGDGNCLFRALGDQLEGHSRNHLKHRQETVDYMIKQREDFEPFVEDDIPFEKHVASLAKPGTFAGNDAIVAFARNHQLNVVIHQLNAPLWQIRGTEKSSVRELHIAYRYGEHYDSVRRINDNSEAPAHLQTDFQMLHQDESNKREKIKTKGMDSEDDLRDEVEDAVQKVCNATGCSDFNLIVQNLEAENYNIESAIIAVLRMNQGKRNNAEENLEPSGRVLKQCGPLWEEGGSGARIFGNQGLNEGRTENNKAQASPSEENKANKNQLAKVTNKQRREQQWMEKKKRQEERHRHKALESRGSHRDNNRSEAEANTQVTLVKTFAALNI
partner: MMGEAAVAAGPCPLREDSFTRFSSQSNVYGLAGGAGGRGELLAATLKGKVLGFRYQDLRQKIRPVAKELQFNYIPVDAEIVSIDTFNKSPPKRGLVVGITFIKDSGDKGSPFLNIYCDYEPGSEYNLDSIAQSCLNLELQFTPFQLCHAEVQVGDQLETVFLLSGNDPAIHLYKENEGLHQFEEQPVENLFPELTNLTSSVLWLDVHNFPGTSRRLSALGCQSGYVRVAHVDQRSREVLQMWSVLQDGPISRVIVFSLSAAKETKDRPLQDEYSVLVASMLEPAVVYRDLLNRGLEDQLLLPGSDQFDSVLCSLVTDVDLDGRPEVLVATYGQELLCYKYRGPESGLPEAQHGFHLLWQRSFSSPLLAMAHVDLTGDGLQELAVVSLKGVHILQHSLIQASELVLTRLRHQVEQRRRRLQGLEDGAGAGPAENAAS

Variants of: B1
Conditions: with kptn_human KPTN

Row | Variant | effect of a mutation on the interaction
1 | C76A | with no effect
